{
  "source": "patent US20250179192A1",
  "binders": {"B1": {"name": "6A6 (scFv form, off-rate screening) (scFv, from another filing, V domains shown)", "VH": "QMQLVQSGAEVKKPGASVKLSCKASGYTFSSYWMHWVRQAPGQRLEWMGEINPGNGHTNYNEKFKSRVTITVDKSASTAYMELSSLRSEDTAVYYCAKIWGPSLTSPFDYWGQGTLVTVSS", "VL": "SNFMLTQPPSVSVSPGKTARITCRGDNLGDVNVHWYQQRPGQAPVLVMYYDADRPSGIPERFSGSNSGNTATLTISGVEAGDEADYYCQVWDRTSEYVFGTGTKVTVLG"}},
  "molecular_target": "KDR1-3 domains (UniProt P35968)",
  "sequence (P35968 20-327 limits assumed)": "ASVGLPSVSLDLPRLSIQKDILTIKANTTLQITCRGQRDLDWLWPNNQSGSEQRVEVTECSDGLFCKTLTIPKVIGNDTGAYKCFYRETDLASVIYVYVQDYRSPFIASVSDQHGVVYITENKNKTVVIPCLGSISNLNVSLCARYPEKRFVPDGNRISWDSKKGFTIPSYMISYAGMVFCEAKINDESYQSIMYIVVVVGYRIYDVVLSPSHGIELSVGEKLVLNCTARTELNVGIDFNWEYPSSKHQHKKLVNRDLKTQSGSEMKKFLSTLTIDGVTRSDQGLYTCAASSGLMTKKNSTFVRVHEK",
  "assay": "Octet BLI, KDR1-3 domains on biosensor, scFv in solution",
  "data": [
    {"binder": "B1", "values": [
      {"measurement": "koff", "value": 0.000266, "unit": "s⁻¹"}
    ]}
  ]
}
